Test results: patent US20170252458A1 (EISAI R AND D MANAGEMENT, published 2017)
Several values for one entry are separate records, joined by “and”; a condition that tells them apart may be missing. Identical values can stand only once.

Legend:
[1] = target: T1, Recombinant human mesothelin (human, UniProt Q13421 296-580, limits assumed); assay: Biacore T100, antibody captured on anti-human IgG, antigen injected, 1:1 Langmuir
T1 construct: also called MSLN
Procedure: Antibody concentrations were adjusted to 2 μg/mL in HBS-P+ buffer (GE Healthcare). Unmodified antibodies, or ADCs, were injected over an anti-human IgG sensor on a BIAcore T100 (GE Healthcare) for 1 min at a flow rate of 10 μL/min. To record the antigen association to the captured antibody, a series of increasing concentrations of antigen was injected for 300 sec at a flow rate of 30 μL/min. […] The dissociation of antigen was monitored for 30 min at the same flow rate. The sensor surface was regenerated by injecting 3 M MgCl₂ for 2×30 sec at a flow rate of 30 μL/min. Sensograms were analyzed with Biacore T100 Evaluation Software using a 1:1 Langmuir binding model.
Binding affinities of the parental antibodies were determined by Biacore analysis, as described above in section 1.6.1. Aggregation levels for all anti-human mesothelin ADCs were determined by SEC-HPLC and the DAR was analyzed using HIC-HPLC. In vitro potency was evaluated using a Crystal Violet cell-based cytotoxicity assay in A3 (A431 stabily transfected with human mesothelin (MSLN), MSLN^hi), OVCAR3 (human ovarian, MSLN^hi), HEC-251 (human endometroid, MSLN^med), H226 (human lung squamous cell mesothelioma, MSLN^lo, and A431 parental (MSLN^neg) cells. The results of the DAR, aggregation, and cytotoxicity analyses are shown in Table 50.

[2] = target: T2, Human folate receptor alpha on tumor cells (human, UniProt P15328 25-234); assay: cell-based or functional assay
[3] = target: T2, Human folate receptor alpha on tumor …; assay: cell-based or functional assay; remark: listed apart in the source
[4] = target: T3, Recombinant human folate receptor alpha (human, UniProt P15328 25-234); assay: ELISA, recombinant human FRA coated
T3 construct: also called FRA; FR
Procedure: Coating solution was discarded and the plates were washed three times using 1× PBS with 0.05% Tween-20 (PBST) buffer. Plates were blocked in 300 μL blocking buffer (1% BSA in PBST) at room temperature for 2 hours on an orbital shaker. […] Blocking buffer was discarded and 100 μL/well of diluted antibody was added to the plates. Plates were incubated at room temperature for 2 hours on an orbital shaker. Antibody solution was discarded and plates were washed three times using PBST. 100 μL/well of goat-anti-human IgG (H+L)-HRP (1:10,000 dilution in blocking buffer) solution was added to the plates, and plates were incubated at room temperature for 1 hour on an orbital shaker. Secondary antibody solution was discarded and plates were washed three times using PBST. 100 μL/well of QuantaBlu fluorogenic peroxidase substrate working solution (Thermo, Cat No. 15169) was added to the plates, and plates were incubated at room temperature for 30 min. Fluorescence was read at excitation 325 nm/emission 420 nm using a SpectraMax M5 (Molecular Devices). Data was analyzed using SoftMaxPro 5.4.2 software with 4-parameter fitting.

T1 sequence (Q13421 other isoform, or with tags, fused parts or gaps limits assumed): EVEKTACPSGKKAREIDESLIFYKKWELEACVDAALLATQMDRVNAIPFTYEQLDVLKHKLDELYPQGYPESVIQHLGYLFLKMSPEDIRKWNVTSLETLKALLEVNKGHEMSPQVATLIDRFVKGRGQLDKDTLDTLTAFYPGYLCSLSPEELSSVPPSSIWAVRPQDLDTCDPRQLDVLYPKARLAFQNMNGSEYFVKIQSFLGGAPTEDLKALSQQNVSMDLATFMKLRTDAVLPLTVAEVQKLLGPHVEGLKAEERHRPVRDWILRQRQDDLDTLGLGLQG
T2 sequence (P15328 25-234 limits assumed): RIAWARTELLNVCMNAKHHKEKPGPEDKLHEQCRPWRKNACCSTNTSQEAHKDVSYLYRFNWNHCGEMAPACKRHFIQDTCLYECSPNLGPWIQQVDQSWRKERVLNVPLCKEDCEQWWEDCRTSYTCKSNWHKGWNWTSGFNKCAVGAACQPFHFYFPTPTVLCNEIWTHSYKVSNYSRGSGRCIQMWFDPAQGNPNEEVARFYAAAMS
T3 sequence (P15328 25-234 limits assumed): as above

Row | Binder | Kd [1] | EC50 [4] | other results
1 | 201C15-xi (antibody, human IgG1, kappa, V domains shown, Rabbit-human chimeric anti-human mesothelin with unpaired cysteine at LCcys80; parental mAb in Biacore) VH: QSVKESGGRLVTPGTPLTLTCTVSGIDLSSYAMGWFRQAPGKGLEYIGTINIGGRVYYASWAKGRFTISRTSTTVDLKAPSLTAEDTATYFCARYYNGGSYDIWGPGTLVTVSL VL: DVVMTQTPASASEPVGGTVTIKCQASESIYRVLAWYQQKPGQPPKLLIYDTSTLASGAPSRFKGSGYGTEFTLTISGVQCEDAATYYCQGGYYADSYGIAFGGGTEVVVKR | 1.1 nM |  | 
2 | 346C6-xi (antibody, human IgG1, kappa, V domains shown, Rabbit-human chimeric anti-human mesothelin with unpaired cysteine at LCcys80; parental mAb in Biacore) VH: QSVEESGGRLVKPDESLTLTCTASGFSLSSYAMIWVRQAPGEGLEWIGTISTGGITYYASWAKGRFTISKTSTTVDLKITSPTTEDTATYFCARGGYAASSAYYLPYYFDLWGQGTLVTVSS VL: AAVLTQTPSPVSAAVGGTVTISCQSSQSVYNNNNLAWFQQKPGQPPKLLIYLASTLASGVPSRFSGSGSGTQFTLTISGVQCDDAATYYCLGGCDDDADTFAFGGGTEVVVKR | 1.4 nM |  | 
3 | 201C15-zu (antibody, human IgG1, kappa, V domains shown, Humanized anti-human mesothelin with unpaired cysteine at LCcys80; parental mAb in Biacore) VH: QVQLVESGGGLVQPGGSLRLSCSASGIDLSSYAMGWVRQAPGKGLEYIGTINIGGRVYYASWAKGRFTISRDNSKNTLYLQMNSLRAEDTAVYYCARYYNGGSYDIWGQGTLVTVSS VL: DIQMTQSPSTLSASVGDRVTITCQASESIYRVLAWYQQKPGKAPKLLIYDTSTLASGVPSRFSGSGSGTEFTLTISSLQCDDAATYYCQGGYYADSYGIAFGGGTKVEIKR | 4.2 nM |  | 
4 | 346C6-zu (antibody, human IgG1, kappa, V domains shown, Humanized anti-human mesothelin with unpaired cysteine at LCcys80; parental mAb in Biacore) VH: EVQLVESGGGLVQPGGSLRLSCAASGFSLSSYAMIWVRQAPGKGLEWIGTISTGGITYYASWAKGRFTISRDNSKNTLYLQMNSLRAEDTAVYYCARGGYAASSAYYLPYYFDLWGQGTLVTVSS VL: DIQMTQSPSSLSASVGDRVTITCQSSQSVYNNNNLAWYQQKPGKVPKLLIYLASTLASGVPSRFSGSGSGTDFTLTISSLQCEDAATYYCLGGCDDDADTFAFGGGTKVEIKR | 6.9 nM |  | 
5 | 111B10-xi (antibody, human IgG1, kappa, V domains shown, Rabbit-human chimeric anti-human mesothelin with unpaired cysteine at LCcys80; parental mAb in Biacore; also called 111810 xi) VH: QSVEESGGRLVTPGTPLTLTCTVSGFSLNNYAMSWVRQAPGKGLEWIGSISTGGLAFYANWAKGRFTISRTSTTVDLKMTSLTTEDTATYFCGRNGGGSYIFYYFDLWGQGTLVTVSS VL: AFELTQTPSSVEAAVGGTITIKCQASQSISSYLSWYQQKPGQPPKLLIYSASTLASGVSSRFKGSGSGTEYTLTISDLECADAATYFCQSYYDIGTSTFGGGTEVVVKR | 6.3 nM |  | 
6 | MORAb-003-VCP-eribulin (MORAb-202) (antibody, human IgG1, kappa, V domains shown, Mal-PEG2-Val-Cit-pAB-eribulin on interchain cysteines, sites not given) VH: EVQLVESGGGVVQPGRSLRLSCSASGFTFSGYGLSWVRQAPGKGLEWVAMISSGGSYTYYADSVKGRFAISRDNAKNTLFLQMDSLRPEDTGVYFCARHGDDPAWFAYWGQGTPVTVSS VL: DIQLTQSPSSLSASVGDRVTITCSVSSSISSNNLHWYQQKPGKAPKPWIYGTSNLASGVPSRFSGSGSGTDYTFTISSLQPEDIATYYCQQWSSYPYMYTFGQGTKVEIKR |  |  | IC50 (read off the curve), % survival of IGROV1 cells, conjugate alone [2]: ~0.03 nM; IC50 (read off the curve), % survival of IGROV1 cells, in the presence of 2 µM unconjugated MORAb-003 as competitor [2]: ~3 nM; Cytotoxicity EC50 (nM), A431-A3 (FR+/-), Crystal Violet assay [3]: 23 nM; Cytotoxicity EC50 (nM), IGROV I (FR+++), Crystal Violet assay [3]: 0.01 nM; Cytotoxicity EC50 (nM), NCI-H2110 (FR++), Crystal Violet assay [3]: 0.74 nM; Cytotoxicity EC50 (nM), OVCAR3 (FR++), Crystal Violet assay [3]: 0.16 nM
7 | MORAb003-DBCO-ER1138856 (antibody, human IgG1, kappa, V domains shown, NHS-PEG4-DBCO on lysines, then azide-PEG3-sulfonamide-pAB-eribulin by SPAAC; sites not given, Antibody-drug conjugate) VH: EVQLVESGGGVVQPGRSLRLSCSASGFTFSGYGLSWVRQAPGKGLEWVAMISSGGSYTYYADSVKGRFAISRDNAKNTLFLQMDSLRPEDTGVYFCARHGDDPAWFAYWGQGTPVTVSS VL: DIQLTQSPSSLSASVGDRVTITCSVSSSISSNNLHWYQQKPGKAPKPWIYGTSNLASGVPSRFSGSGSGTDYTFTISSLQPEDIATYYCQQWSSYPYMYTFGQGTKVEIKR |  | 0.015 µg/mL and 0.1 nM | 
8 | MORAb003-DBCO-PEG4 VCP eribulin (antibody, human IgG1, kappa, V domains shown, NHS-PEG4-DBCO on lysines, then azido-PEG4-Val-Cit-pAB-eribulin by SPAAC; sites not given, Antibody-drug conjugate) VH: EVQLVESGGGVVQPGRSLRLSCSASGFTFSGYGLSWVRQAPGKGLEWVAMISSGGSYTYYADSVKGRFAISRDNAKNTLFLQMDSLRPEDTGVYFCARHGDDPAWFAYWGQGTPVTVSS VL: DIQLTQSPSSLSASVGDRVTITCSVSSSISSNNLHWYQQKPGKAPKPWIYGTSNLASGVPSRFSGSGSGTDYTFTISSLQPEDIATYYCQQWSSYPYMYTFGQGTKVEIKR |  | 0.016 µg/mL and 0.11 nM | 
9 | MORAb003-DBCO-PEG2 eribulin (antibody, human IgG1, kappa, V domains shown, NHS-PEG4-DBCO on lysines, then azido-PEG2-eribulin by SPAAC; sites not given, Antibody-drug conjugate) VH: EVQLVESGGGVVQPGRSLRLSCSASGFTFSGYGLSWVRQAPGKGLEWVAMISSGGSYTYYADSVKGRFAISRDNAKNTLFLQMDSLRPEDTGVYFCARHGDDPAWFAYWGQGTPVTVSS VL: DIQLTQSPSSLSASVGDRVTITCSVSSSISSNNLHWYQQKPGKAPKPWIYGTSNLASGVPSRFSGSGSGTDYTFTISSLQPEDIATYYCQQWSSYPYMYTFGQGTKVEIKR |  | 0.0191 µg/mL and 0.13 nM | 
10 | MORAb003-DBCO-ER1237508 (antibody, human IgG1, kappa, V domains shown, NHS-PEG4-DBCO on lysines, then azide-PEG3-disulfide-pAB-eribulin by SPAAC; sites not given, Antibody-drug conjugate) VH: EVQLVESGGGVVQPGRSLRLSCSASGFTFSGYGLSWVRQAPGKGLEWVAMISSGGSYTYYADSVKGRFAISRDNAKNTLFLQMDSLRPEDTGVYFCARHGDDPAWFAYWGQGTPVTVSS VL: DIQLTQSPSSLSASVGDRVTITCSVSSSISSNNLHWYQQKPGKAPKPWIYGTSNLASGVPSRFSGSGSGTDYTFTISSLQPEDIATYYCQQWSSYPYMYTFGQGTKVEIKR |  | 0.0241 µg/mL and 0.16 nM | 
11 | MORAb003-DBCO-PEG4 eribulin (antibody, human IgG1, kappa, V domains shown, NHS-PEG4-DBCO on lysines, then azido-PEG4-eribulin by SPAAC; sites not given, Antibody-drug conjugate) VH: EVQLVESGGGVVQPGRSLRLSCSASGFTFSGYGLSWVRQAPGKGLEWVAMISSGGSYTYYADSVKGRFAISRDNAKNTLFLQMDSLRPEDTGVYFCARHGDDPAWFAYWGQGTPVTVSS VL: DIQLTQSPSSLSASVGDRVTITCSVSSSISSNNLHWYQQKPGKAPKPWIYGTSNLASGVPSRFSGSGSGTDYTFTISSLQPEDIATYYCQQWSSYPYMYTFGQGTKVEIKR |  | 0.0133 µg/mL and 0.09 nM | 
12 | MORAb003-ER1244623 (antibody, human IgG1, kappa, V domains shown, NHS-PEG3-triazole-PEG3-sulfonamide-pAB-eribulin on lysines, sites not given, Antibody-drug conjugate; DAR 0.55 (LC-MS)) VH: EVQLVESGGGVVQPGRSLRLSCSASGFTFSGYGLSWVRQAPGKGLEWVAMISSGGSYTYYADSVKGRFAISRDNAKNTLFLQMDSLRPEDTGVYFCARHGDDPAWFAYWGQGTPVTVSS VL: DIQLTQSPSSLSASVGDRVTITCSVSSSISSNNLHWYQQKPGKAPKPWIYGTSNLASGVPSRFSGSGSGTDYTFTISSLQPEDIATYYCQQWSSYPYMYTFGQGTKVEIKR |  | 0.00454 µg/mL and 0.03 nM | 
13 | MORAb003-ER1244129 (antibody, human IgG1, kappa, V domains shown, NHS-PEG3-triazole-PEG3-disulfide-pAB-eribulin on lysines, sites not given, Antibody-drug conjugate; DAR 0.24 (LC-MS)) VH: EVQLVESGGGVVQPGRSLRLSCSASGFTFSGYGLSWVRQAPGKGLEWVAMISSGGSYTYYADSVKGRFAISRDNAKNTLFLQMDSLRPEDTGVYFCARHGDDPAWFAYWGQGTPVTVSS VL: DIQLTQSPSSLSASVGDRVTITCSVSSSISSNNLHWYQQKPGKAPKPWIYGTSNLASGVPSRFSGSGSGTDYTFTISSLQPEDIATYYCQQWSSYPYMYTFGQGTKVEIKR |  | 0.0143 µg/mL and 0.1 nM | 
14 | 111B10-zu (antibody, human IgG1, kappa, V domains shown, Humanized anti-human mesothelin with unpaired cysteine at LCcys80; parental mAb in Biacore; also called 111810 zu) VH: EVQLVESGGGLVQPGGSLRLSCAASGFSLNNYAMSWVRQAPGKGLEWIGSISTGGLAFYANWAKGRFTISRDNSKNTLYLQMNSLRAEDTAVYYCARNGGGSYIFYYFDLWGQGTLVTVSS VL: DIQMTQSPSSLSASVGDRVTITCQASQSISSYLSWYQQKPGKAPKLLIYSASTLASGVPSRFSGSGSGTDFTLTISSLQCEDAATYYCQSYYDIGTSTFGGGTKVEIKR | 8.5 nM |  | 
15 | 33011-zu (antibody, human IgG1, kappa, V domains shown, Humanized anti-human mesothelin with unpaired cysteine at LCcys80; parental (unconjugated) mAb in Biacore; also called 33O11 zu) VH: EVQLVESGGGLVQPGGSLRLSCAASGISLSSDAISWVRQAPGKGLEYIGIINGGGNTYYASWAKGRFTISRHNSKNTLYLQMNSLRAEDTAVYYCARGIQHGGGNSDYYYYGMDLWGQGTLVTVSS VL: DIQMTQSPSSLSASVGDRVTITCQASQSISSVLSWYQQKPGKAPKLLIYLASTLASGVPSRFSGSGSGTDFTLTISSLQCEDIATYYCQTNYGTSSSNYGFAFGGGTKVEIKR | 3.4 nM |  | 
